Experimental findings from US20250101122A1 (KELONIA THERAPEUTICS, published 2025) are described below.

To fix the notation:
B1: anti-BCMA CAR of recombinant lentivirus LV 7 (SEQ ID NO: 477) (other)
chain: DIQMTQSPSSLSASVGDRVTITCRASQSISSYLNWYQQKPGKAPKLLIYAASSLQSGVPSRFSGSGSGTDFTLTISSLQPEDFATYYCQQAHSSPITFGGGTKVEIKGGGGSGGGGSGGGGSGGGGSEVQLLESGGGLVQPGGSLRLSCAASGFTFSNYAMSWVRQAPGKGLEWVSAISGSGGSTYYADSVKGRFTISRDNSKNTLYLQMNSLRAEDTAVYYCARPGDGYYEGVYFDYWGQGTLVTVSSTTTPAPRPPTPAPTIASQPLSLRPEACRPAAGGAVHTRGLDFACDIYIWAPLAGTCGVLLLSLVITLYCKRGRKKLLYIFKQPFMRPVQTTQEEDGCSCRFPEEEEGGCELRVKFSRSADAPAYQQGQNQLYNELNLGRREEYDVLDKRRGRDPEMGGKPRRKNPQEGLYNELQKDKMAEAYSEIGMKGERRRGKGHDGLYQGLSTATKDTYDALHMQALPPR
notes: Chimeric antigen receptor on the surface of transduced cells; CD8α hinge and TM, CD137, CD3ζ
B2: anti-BCMA CAR of recombinant lentivirus LV 8 (SEQ ID NO: 525) (other)
chain: DIQMTQSPSSLSASVGDRVTITCQASQDIANYLNWYQQKPGKAPKLLIYDASNLETGVPSRFSGSGSGTDFTFTISSLQPEDIATYYCQQHFNLPLTFGGGTKVEIKGGGGSGGGGSGGGGSGGGGSQITLKESGPTLVKPTQTLTLTCTFSGFSLSTSGVGVGWIRQPPGKALEWLALIYWNDEKRYSPSLKSRLTITKDTSKNQVVLTMTNMDPVDTAVYYCAREGSHDYKSSNWFDPWGQGTLVTVSSTTTPAPRPPTPAPTIASQPLSLRPEACRPAAGGAVHTRGLDFACDIYIWAPLAGTCGVLLLSLVITLYCKRGRKKLLYIFKQPFMRPVQTTQEEDGCSCRFPEEEEGGCELRVKFSRSADAPAYQQGQNQLYNELNLGRREEYDVLDKRRGRDPEMGGKPRRKNPQEGLYNELQKDKMAEAYSEIGMKGERRRGKGHDGLYQGLSTATKDTYDALHMQALPPR
notes: as for B1
B3: anti-BCMA CAR of recombinant lentivirus LV 11 (SEQ ID NO: 645) (other)
chain: EVQLLESGGGLVQPGGSLRLSCAASGFTFDEYTMHWFRQAPGKEREFVSAISGGGSETYYADSVKGRFTISRDNSKNTLYLQMNSLRAEDTAVYYCAAGGEEAGVGYWGQGTQVTVSSTTTPAPRPPTPAPTIASQPLSLRPEACRPAAGGAVHTRGLDFACDIYIWAPLAGTCGVLLLSLVITLYCKRGRKKLLYIFKQPFMRPVQTTQEEDGCSCRFPEEEEGGCELRVKFSRSADAPAYQQGQNQLYNELNLGRREEYDVLDKRRGRDPEMGGKPRRKNPQEGLYNELQKDKMAEAYSEIGMKGERRRGKGHDGLYQGLSTATKDTYDALHMQALPPR
notes: as for B1
B4: anti-BCMA CAR of recombinant lentivirus LV 12 (SEQ ID NO: 669) (other)
chain: EVQLLESGGGLVQPGGSLRLSCAASGFTFEDYAMSWFRQAPGKEREGVSAISGKGGSTYYADSVKGRFTISRDNSKNTLYLQMNSLRAEDTAVYYCAVLDEEAGAEGGYWGQGTQVTVSSTTTPAPRPPTPAPTIASQPLSLRPEACRPAAGGAVHTRGLDFACDIYIWAPLAGTCGVLLLSLVITLYCKRGRKKLLYIFKQPFMRPVQTTQEEDGCSCRFPEEEEGGCELRVKFSRSADAPAYQQGQNQLYNELNLGRREEYDVLDKRRGRDPEMGGKPRRKNPQEGLYNELQKDKMAEAYSEIGMKGERRRGKGHDGLYQGLSTATKDTYDALHMQALPPR
notes: as for B1
B5: anti-BCMA CAR of recombinant lentivirus LV 13 (SEQ ID NO: 693) (other)
chain: EVQLLESGGGLVQPGGSLRLSCAASGFTFDRYAMSWFRQAPGKEREGVSAISTSGDSTYYADSVKGRFTISRDNSKNTLYLQMNSLRAEDTAVYYCAVLDEEAGAEGGYWGQGTQVTVSSTTTPAPRPPTPAPTIASQPLSLRPEACRPAAGGAVHTRGLDFACDIYIWAPLAGTCGVLLLSLVITLYCKRGRKKLLYIFKQPFMRPVQTTQEEDGCSCRFPEEEEGGCELRVKFSRSADAPAYQQGQNQLYNELNLGRREEYDVLDKRRGRDPEMGGKPRRKNPQEGLYNELQKDKMAEAYSEIGMKGERRRGKGHDGLYQGLSTATKDTYDALHMQALPPR
notes: as for B1
B6: anti-BCMA CAR of recombinant lentivirus LV 3 (SEQ ID NO: 261) (other)
chain: QVQLVESGGGVVQPGRSLRLSCAASGFTFSSYGMHWVRQAPGKGLEWVAVISYEGSNKYYADSVKGRFTISRDNSKNTLYLQMNSLRAEDTAVYYCARELGDGMDVWGQGTTVTVSSGGGGSGGGGSGGGGSGGGGSEIVLTQSPATLSLSPGERATLSCRASQSVSSYLAWFQQKPGQAPRLLIYDASNRATGIPARFSGSGSGTDFTLTISSLEPEDFAVYYCQQRVDLWTFGGGTKVEIKTTTPAPRPPTPAPTIASQPLSLRPEACRPAAGGAVHTRGLDFACDIYIWAPLAGTCGVLLLSLVITLYCKRGRKKLLYIFKQPFMRPVQTTQEEDGCSCRFPEEEEGGCELRVKFSRSADAPAYQQGQNQLYNELNLGRREEYDVLDKRRGRDPEMGGKPRRKNPQEGLYNELQKDKMAEAYSEIGMKGERRRGKGHDGLYQGLSTATKDTYDALHMQALPPR
notes: as for B1
B7: anti-BCMA CAR of recombinant lentivirus LV 10 (SEQ ID NO: 621) (other)
chain: EVQLLESGGGLVQPGGSLRLSCAASGFTFESEAMSWYRQAPGKERELVSVITSEGSTYYADSVKGRFTISRDNSKNTLYLQMNSLRAEDTAVYYCAHIEWETRLNWGQGTQVTVSSTTTPAPRPPTPAPTIASQPLSLRPEACRPAAGGAVHTRGLDFACDIYIWAPLAGTCGVLLLSLVITLYCKRGRKKLLYIFKQPFMRPVQTTQEEDGCSCRFPEEEEGGCELRVKFSRSADAPAYQQGQNQLYNELNLGRREEYDVLDKRRGRDPEMGGKPRRKNPQEGLYNELQKDKMAEAYSEIGMKGERRRGKGHDGLYQGLSTATKDTYDALHMQALPPR
notes: as for B1
B8: anti-BCMA CAR of recombinant lentivirus LV 1 (SEQ ID NO: 189) (other)
chain: EIVLTQSPATLSLSPGERATLSCRASQSVSSYLAWYQQKPGQAPRLLIYDASNRATGIPARFSGSGSGTDFTLTISSLEPEDFAVYYCQQRVVYPITFGGGTKVEIKGGGGSGGGGSGGGGSGGGGSQITLKESGPTLVKPTQTLTLTCTFSGFSLSTSGVGVGWIRQPPGKALEWLALIYWNDEKRYSPSLKSRLTITKDTSKNQVVLTMTNMDPVDTAVYYCARDEYGGFDIWGQGTMVTVSSTTTPAPRPPTPAPTIASQPLSLRPEACRPAAGGAVHTRGLDFACDIYIWAPLAGTCGVLLLSLVITLYCKRGRKKLLYIFKQPFMRPVQTTQEEDGCSCRFPEEEEGGCELRVKFSRSADAPAYQQGQNQLYNELNLGRREEYDVLDKRRGRDPEMGGKPRRKNPQEGLYNELQKDKMAEAYSEIGMKGERRRGKGHDGLYQGLSTATKDTYDALHMQALPPR
notes: Chimeric antigen receptor on the surface of transduced cells; CD8α hinge and TM, CD137 costimulatory domain, CD3ζ
B9: anti-BCMA CAR of recombinant lentivirus LV 2 (SEQ ID NO: 237) (other)
chain: EIVLTQSPATLSLSPGERATLSCRASQSVSSYLAWYQQKPGQAPRLLIYDASNRATGIPARFSGSGSGTDFTLTISSLEPEDFAVYYCQQRFDYPITFGGGTKVEIKGGGGSGGGGSGGGGSGGGGSQITLKESGPTLVKPTQTLTLTCTFSGFSLSTSGVGVGWIRQPPGKALEWLALIYWNDDKRYSPSLKSRLTITKDTSKNQVVLTMTNMDPVDTAVYYCARDEYGGFDIWGQGTMVTVSSTTTPAPRPPTPAPTIASQPLSLRPEACRPAAGGAVHTRGLDFACDIYIWAPLAGTCGVLLLSLVITLYCKRGRKKLLYIFKQPFMRPVQTTQEEDGCSCRFPEEEEGGCELRVKFSRSADAPAYQQGQNQLYNELNLGRREEYDVLDKRRGRDPEMGGKPRRKNPQEGLYNELQKDKMAEAYSEIGMKGERRRGKGHDGLYQGLSTATKDTYDALHMQALPPR
notes: as for B1
B10: anti-BCMA CAR of recombinant lentivirus LV 5 (SEQ ID NO: 357) (other)
chain: QVQLVESGGGLVKPGGSLRLSCAASGFTFSDYYMSWIRQAPGKGLEWVSYISSSGSTIYYADSVKGRFTISRDNAKNSLYLQMNSLRAEDTAVYYCARDQGNYGVDVWGQGTTVTVSSGGGGSGGGGSGGGGSGGGGSDIQMTQSPSTLSASVGDRVTITCRASQSISSWLAWYQQKPGKAPKLLIYEASSLESGVPSRFSGSGSGTEFTLTISSLQPDDFATYYCQQSDSHPITFGGGTKVEIKTTTPAPRPPTPAPTIASQPLSLRPEACRPAAGGAVHTRGLDFACDIYIWAPLAGTCGVLLLSLVITLYCKRGRKKLLYIFKQPFMRPVQTTQEEDGCSCRFPEEEEGGCELRVKFSRSADAPAYQQGQNQLYNELNLGRREEYDVLDKRRGRDPEMGGKPRRKNPQEGLYNELQKDKMAEAYSEIGMKGERRRGKGHDGLYQGLSTATKDTYDALHMQALPPR
notes: as for B1
B11: anti-BCMA CAR of recombinant lentivirus LV 18 (SEQ ID NO: 837) (other)
chain: EVQLLESGGGLVQPGGSLRLSCAASGFTFSSEGMSWVRQAPGKERELVSAISGSGDHTYYADSVRGRFTISRDNSKNTLYLQMNSLRAEDTAVYYCNALEGGPTTAIQPGGPDYWGQGTQVTVSSTTTPAPRPPTPAPTIASQPLSLRPEACRPAAGGAVHTRGLDFACDIYIWAPLAGTCGVLLLSLVITLYCKRGRKKLLYIFKQPFMRPVQTTQEEDGCSCRFPEEEEGGCELRVKFSRSADAPAYQQGQNQLYNELNLGRREEYDVLDKRRGRDPEMGGKPRRKNPQEGLYNELQKDKMAEAYSEIGMKGERRRGKGHDGLYQGLSTATKDTYDALHMQALPPR
notes: as for B1
B12: anti-BCMA CAR of recombinant lentivirus LV 9 (SEQ ID NO: 597) (other)
chain: EVQLLESGGGLVQPGGSLRLSCAASGFTFGSEAMSWVRQAPGKERELVSAISGSGEVTYYADSVKGRFTISRDNSKNTLYLQMNSLRAEDTAVYYCQRLVEAKRHWGQGTQVTVSSTTTPAPRPPTPAPTIASQPLSLRPEACRPAAGGAVHTRGLDFACDIYIWAPLAGTCGVLLLSLVITLYCKRGRKKLLYIFKQPFMRPVQTTQEEDGCSCRFPEEEEGGCELRVKFSRSADAPAYQQGQNQLYNELNLGRREEYDVLDKRRGRDPEMGGKPRRKNPQEGLYNELQKDKMAEAYSEIGMKGERRRGKGHDGLYQGLSTATKDTYDALHMQALPPR
notes: as for B1
B13: anti-BCMA CAR of recombinant lentivirus LV 15 (SEQ ID NO: 741) (other)
chain: EVQLLESGGGLVQPGGSLRLSCAASGFTFDSYTMSWYRQAPGKERELVSAISGHGDSTYYADSVKGRFTISRDNSKNTLYLQMNSLRAEDTAVYYCTRISITTEWLAGDYWGQGTQVTVSSTTTPAPRPPTPAPTIASQPLSLRPEACRPAAGGAVHTRGLDFACDIYIWAPLAGTCGVLLLSLVITLYCKRGRKKLLYIFKQPFMRPVQTTQEEDGCSCRFPEEEEGGCELRVKFSRSADAPAYQQGQNQLYNELNLGRREEYDVLDKRRGRDPEMGGKPRRKNPQEGLYNELQKDKMAEAYSEIGMKGERRRGKGHDGLYQGLSTATKDTYDALHMQALPPR
notes: as for B1

The target in the experiment is T1, recombinant, phycoerythrin (PE) labeled, BCMA extracellular domain-FC fusion protein (BCMA-PE) (Homo sapiens (Human), UniProt Q02223 1-54, phycoerythrin (PE) label, site not stated).
T1 construct: Staining reagent; not shown: Fc part
T1 sequence: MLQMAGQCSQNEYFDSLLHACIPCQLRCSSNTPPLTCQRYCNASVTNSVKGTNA
The experiment in a line: flow cytometry; transduced PBMCs stained with PE-labelled BCMA extracellular domain-Fc (BCMA-PE). The procedure:
5×10⁵ human PBMCs were plated in each well of a 24-well plate. Cells were transduced with recombinant lentiviruses LV 1 to LV 19 at a MOI 2 based on the Jurkat functional titer, or a 0.5 mL volumetric transduction if MOI 2 was not achievable. Seven days post-transduction, PBMCs were harvested and stained with BCMA-PE and analyzed by flow cytometry to assess the percentage of anti-BCMA CAR expressing cells. FIG. 2B.
For B1, the binding result is “binds”. On to B2, for which the binding result is “binds”.

In the case of B3, the binding result is listed as “binds”. On to B4, for which the binding result was “binds”. The result for B5 reads “binds”; that for B6, “binds”; that for B7, “binds”. The result for B8 reads “binds”; that for B9, “binds”; that for B10, “binds”.

Consider B11, for which the binding result was “binds”. For B12, the binding result is “binds”. Regarding B13, the binding result was “binds”.
